Laboratory results from patent US20050106100.

Key:
[1] = target: T1, Ac-Csa-PLG˜Hphe-YL-Ambh-Hynic (not fully specified)
T1 chain: XPLGXYL

[2] = target: T2, Ac-NGlu-PLG˜Hphe-YL-Ambh-Hynic (not fully specified)
T2 chain: XPLGXYL

Ac-NGlu-POG˜Hphe-L-Hynic = target: T3, Ac-NGlu-POG˜Hphe-L-Hynic (not fully specified)
T3 chain: XPXGXL

[3] = target: T4, Ac-PLG˜Hphe-OL-Ambh-Hynic
T4 chain: PLGXXL

[4] = target: T5, Ac-PLG˜Hphe-YL-Ahxh-Hynic (not fully specified)
T5 chain: PLGXYL

Ac-PLG˜Hphe-YL-Hynic = target: T6, Ac-PLG˜Hphe-YL-Hynic
T6 chain: PLGXYL

Ac-POG˜Hphe-L-Ambh-Hynic = target: T7, Ac-POG˜Hphe-L-Ambh-Hynic
T7 chain: PXGXL

Ac-POG˜Hphe-L-Hynic = target: T8, Ac-POG˜Hphe-L-Hynic
T8 chain: PXGXL

B1: mouse MMP9 (protein)
chain: FQTFKGLKWDHHNITYWIQNYSEDLPRDMIDDAFARAFAVWGEVAPLTFTRVYGPEADIVIQFGVAEHGDGYPFDGKDGLLAHAFPPGAGVQGDAHFDDDELWSLGKGVVIPTYYGNSNGAPCHFPFTFEGRSYSACTTDGRNDGTPWCSTTADYDKDGKFGFCPSERLYTEHGNGEGKPCVFPFIFEGRSYSACTTKGRSDGYRWCATTANYDQDKLYGFCPTRVDATVVGGNSAGELCVFPFVFLGKQYSSCTSDGRRDGRLWCATTSNFDTDKKWGFCPDQGYSLFLVAAHEFGHALGLDHSSVPEALMYPLYSYLEGFPLNKDDIDGIQYLYGRGSKPDPRPPATTTTEPQPTAPPTMCPTIPPTAYPTVGPTVGPTGAPSPGPTSSPSPGPTGAPSPGPTAPPTAGSSEASTESLSPADNPCNVDVFDAIAEIQGALHFFKDGWYWKFLNHRGSPLQGPFLTARTWPALPATLDSAFEDPQTKRVFFFSGRQMWVYTGKTVLGPRSLDKLGLGPEVTHVSGLLPRRLGKALLFSKGRVWRFDLKSQKVDPQSVIRVDKEFSGVPWNSHDIFQYQDKAYFCHGKFFWRVSFQNEVNKVDHEVNQVDDVGYVTYDLLQCP
Kcat/Km [1]: 31000 M⁻¹ s⁻¹
Kcat/Km [2]: > 100000 M⁻¹ s⁻¹
Kcat/Km (Ac-NGlu-POG˜Hphe-L-Hynic): 571 M⁻¹ s⁻¹
Kcat/Km [3]: 48000 M⁻¹ s⁻¹
Kcat/Km [4]: > 100000 M⁻¹ s⁻¹
Kcat/Km (Ac-PLG˜Hphe-YL-Hynic): > 100000 M⁻¹ s⁻¹
Kcat/Km (Ac-POG˜Hphe-L-Ambh-Hynic): 14400 M⁻¹ s⁻¹
Kcat/Km (Ac-POG˜Hphe-L-Hynic): 897 M⁻¹ s⁻¹
